Blank lines part the entries; values can stand above or below the molecule they belong to.
Legend:
[1] = target: conjoined PfA (cPfA): N-PfA and C-PfA halves of P. furiosus L-asparaginase without the 19-residue linker (Pyrococcus furiosus) (UniProt Q8TZE8); experiment: SAXS; protein at 6 mg/mL in a thermostated quartz capillary, 70 °C; association state from I0 of the Guinier analysis against lysozyme
[2] = target: conjoined PfA (cPfA): N-PfA and C-PfA halves of P. furiosus L-asparaginase without the 19-residue linker (Pyrococcus furiosus) (UniProt Q8TZE8); experiment: SAXS; protein at 6 mg/mL in a thermostated quartz capillary, 80 °C; association state from I0 of the Guinier analysis against lysozyme
[3] = target: conjoined PfA (cPfA): N-PfA and C-PfA halves of P. furiosus L-asparaginase without the 19-residue linker (Pyrococcus furiosus) (UniProt Q8TZE8); experiment: SAXS; protein at 6 mg/mL in a thermostated quartz capillary, 40 °C; association state from I0 of the Guinier analysis against lysozyme
[4] = target: conjoined PfA (cPfA): N-PfA and C-PfA halves of P. furiosus L-asparaginase without the 19-residue linker (Pyrococcus furiosus) (UniProt Q8TZE8); experiment: SAXS; protein at 6 mg/mL in a thermostated quartz capillary, 30 °C; association state from I0 of the Guinier analysis against lysozyme
[5] = target: conjoined PfA (cPfA): N-PfA and C-PfA halves of P. furiosus L-asparaginase without the 19-residue linker (Pyrococcus furiosus) (UniProt Q8TZE8); experiment: SAXS; protein at 6 mg/mL in a thermostated quartz capillary, 60 °C; association state from I0 of the Guinier analysis against lysozyme
[6] = target: conjoined PfA (cPfA): N-PfA and C-PfA halves of P. furiosus L-asparaginase without the 19-residue linker (Pyrococcus furiosus) (UniProt Q8TZE8); experiment: SAXS; protein at 6 mg/mL in a thermostated quartz capillary, 25 °C; association state from I0 of the Guinier analysis against lysozyme
[7] = target: conjoined PfA (cPfA): N-PfA and C-PfA halves of P. furiosus L-asparaginase without the 19-residue linker (Pyrococcus furiosus) (UniProt Q8TZE8); experiment: SAXS; protein at 6 mg/mL in a thermostated quartz capillary, 50 °C; association state from I0 of the Guinier analysis against lysozyme
[8] = target: defunct cPfA (dcPfA): cPfA truncated beyond D178 of the N-terminal domain (Pyrococcus furiosus) (UniProt Q8TZE8)
[9] = target: the molecule itself; experiment: crystal structure; cPfA crystallised at 37 °C, 2.36 Å, PDB 5CBP; contacts between symmetry mates
[10] = target: the molecule itself; experiment: SAXS; protein at 6 mg/mL in a thermostated quartz capillary, 80 °C; association state from I0 of the Guinier analysis against lysozyme
[11] = target: the molecule itself; experiment: SAXS; protein at 6 mg/mL in a thermostated quartz capillary, 40 °C; association state from I0 of the Guinier analysis against lysozyme
[12] = target: the molecule itself; experiment: SAXS; protein at 6 mg/mL in a thermostated quartz capillary, 30 °C; association state from I0 of the Guinier analysis against lysozyme
[13] = target: the molecule itself; experiment: SAXS; protein at 6 mg/mL in a thermostated quartz capillary, 25 °C; association state from I0 of the Guinier analysis against lysozyme
[14] = target: the molecule itself; experiment: SAXS; protein at 6 mg/mL in a thermostated quartz capillary, 50 °C; association state from I0 of the Guinier analysis against lysozyme

stoichiometry N [1]: 8
stoichiometry N [2]: 12
stoichiometry N [3]: 2
stoichiometry N [4]: 2
stoichiometry N [5]: 4
stoichiometry N [6]: 2
stoichiometry N [7]: 2
Molecule: conjoined PfA (cPfA): N-PfA and C-PfA halves of P. furiosus L-asparaginase without the 19-residue linker (from UniProt Q8TZE8 1-182; Q8TZE8 1-182) (complex)

loss in specific activity of dcPfA relative to cPfA, 45 °C [8]: 38%
loss in specific activity of dcPfA relative to cPfA, 60 °C [8]: 60%
loss in specific activity of dcPfA relative to cPfA, 70 °C [8]: 80%
loss in specific activity of dcPfA relative to cPfA, 80 °C [8]: 90%
Molecule: defunct cPfA (dcPfA): cPfA truncated beyond D178 of the N-terminal domain (from UniProt Q8TZE8 1-178; Q8TZE8 1-178) (complex)

specific activity of dcPfA pre-incubated with LVVN peptide (different molar ratios, highest effective 500 µM) against dcPfA alone, 37 °C [8]: 1.66 fold
specific activity of dcPfA pre-incubated with LVVN peptide (different molar ratios, highest effective 500 µM) against dcPfA alone, 45 °C [8]: 1.85 fold
specific activity of dcPfA pre-incubated with LVVN peptide (different molar ratios, highest effective 500 µM) against dcPfA alone, 60 °C [8]: 2.36 fold
Molecule: LVVN [L-V-V-N peptide (terminal short beta-strand of the N-terminal domain of PfA, Leu179-Asn182)]

More lines, now with the values behind:

B1: N-PfA, N-terminal domain chain of conjoined PfA (domain or fragment, Pyrococcus furiosus, UniProt Q8TZE8 1-182, looked up)
chain: MKILLIGMGGTIASVKGENGYEASLSVKEVLDIAGIKDCEDCDFLDLKNVDSTLIQPEDWVDLAETLYKNVKKYDGIIVTHGTDTLAYTSSMISFMLRNPPIPIVFTGSMIPATEENSDAPLNLQTAIKFATSGIRGVYVAFNGKVMLGVRTSKVRTMSRDAFESINYPIIAELRGEDLVVN
notes: N-PfA, the N-terminal half of P. furiosus L-asparaginase; ends at residue 182
binding result [9]: binds

B2: L-asparaginase from Pyrococcus furiosus, full-length wild type (PfA) (enzyme, UniProt Q8TZE8 1-326, looked up)
chain: MKILLIGMGGTIASVKGENGYEASLSVKEVLDIAGIKDCEDCDFLDLKNVDSTLIQPEDWVDLAETLYKNVKKYDGIIVTHGTDTLAYTSSMISFMLRNPPIPIVFTGSMIPATEENSDAPLNLQTAIKFATSGIRGVYVAFNGKVMLGVRTSKVRTMSRDAFESINYPIIAELRGEDLVVNFIPKFNNGEVTLDLRHDPKVLVIKLIPGLSGDIFRAAVELGYRGIVIEGYGAGGIPYRGSDLLQTIEELSKEIPIVMTTQAMYDGVDLTRYKVGRLALRAGVIPAGDMTKEATVTKLMWILGHTNNVEEIKVLMRKNLVGELRD
notes: L-asparaginase of Pyrococcus furiosus, full length, with N-terminal domain, 19-residue linker and C-terminal domain; One protomer; the SAXS rows give the size of the oligomer it forms
stoichiometry N [10]: 4
stoichiometry N [11]: 2
stoichiometry N [12]: 2
stoichiometry N [13]: 2
stoichiometry N [14]: 2

— paper PMC7728782, “Heat induces end to end repetitive association in P. furiosusL-asparaginase which enables its thermophilic property” (Scientific Reports, 2020)
